Measured values from article doi:10.1101/641415.
Values belong to the substance of their own block, whether it stands above or below them.

Experiments:
[1] = target: SeMet-labelled SiiA-PD (S. Typhimurium); assay: crystal structure
[2] = target: SiiA periplasmic domain (SiiA-PD) (S. Typhimurium); assay: SEC
[3] = target: SiiA-R162A (S. Typhimurium); assay: SEC
[4] = target: periplasmic region of SiiA (ppr-SiiA, aa 40-210) (S. Typhimurium); assay: SEC

- stoichiometry N [1]: 2
Substance: SeMet-labelled SiiA-PD (domain or fragment)

- stoichiometry N [2]: 2
Substance: SiiA periplasmic domain (SiiA-PD) (domain or fragment)

- stoichiometry N [3]: 2
Substance: SiiA-R162A (domain or fragment)

- stoichiometry N [4]: 2
Substance: periplasmic region of SiiA (ppr-SiiA, aa 40-210) (domain or fragment)
